Data on three molecules can be found in US20240124590A1 (ULTRAHUMAN EIGHT, published 2024).

Substitutions are numbered along the chain they refer to. Read-outs that look alike come from different tables or passages of the source.

In assay [1] the target is T1, recombinant ectodomain of human FZD5 (human, UniProt Q13467 27-167, limits assumed).
T1 construct: whole entry named
T1 sequence: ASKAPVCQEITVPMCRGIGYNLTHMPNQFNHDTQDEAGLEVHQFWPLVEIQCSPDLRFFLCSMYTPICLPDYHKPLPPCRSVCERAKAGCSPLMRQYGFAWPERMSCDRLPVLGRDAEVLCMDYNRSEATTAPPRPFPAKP
As to the kind of experiment: direct ELISA. Background: ELISA stands for enzyme-linked immunosorbent assay.

Assay [2] deals with T2, recombinant ectodomain of human VEGFR2 (human, UniProt P35968 20-764).
T2 construct: whole entry named
Put plainly: direct ELISA.

In the next assay the target is T3, BSA protein (UniProt P02769 25-607).
T3 construct: Negative-control coat of the ELISA
T3 sequence (P02769 25-607 limits assumed): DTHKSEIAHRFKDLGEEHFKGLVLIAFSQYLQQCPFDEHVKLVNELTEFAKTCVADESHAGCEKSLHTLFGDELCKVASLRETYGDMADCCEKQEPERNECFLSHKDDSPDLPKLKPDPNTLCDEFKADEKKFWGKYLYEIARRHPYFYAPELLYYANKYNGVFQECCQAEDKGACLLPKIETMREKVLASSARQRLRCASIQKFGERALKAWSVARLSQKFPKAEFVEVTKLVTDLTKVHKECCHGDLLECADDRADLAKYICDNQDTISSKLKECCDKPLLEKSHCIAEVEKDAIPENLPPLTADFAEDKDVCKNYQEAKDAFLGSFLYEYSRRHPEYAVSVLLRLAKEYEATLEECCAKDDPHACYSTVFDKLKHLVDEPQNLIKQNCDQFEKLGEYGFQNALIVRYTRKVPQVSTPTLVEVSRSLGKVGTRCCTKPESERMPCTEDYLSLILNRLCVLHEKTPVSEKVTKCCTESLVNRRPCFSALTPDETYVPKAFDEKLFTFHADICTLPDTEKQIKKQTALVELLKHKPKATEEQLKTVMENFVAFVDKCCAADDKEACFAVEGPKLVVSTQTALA
As to the kind of experiment: direct ELISA.

Assay [3] concerns the target T4, recombinant ectodomain of rhesus VEGFR2 (rhesus).
T4 construct: whole entry named
T4 chain: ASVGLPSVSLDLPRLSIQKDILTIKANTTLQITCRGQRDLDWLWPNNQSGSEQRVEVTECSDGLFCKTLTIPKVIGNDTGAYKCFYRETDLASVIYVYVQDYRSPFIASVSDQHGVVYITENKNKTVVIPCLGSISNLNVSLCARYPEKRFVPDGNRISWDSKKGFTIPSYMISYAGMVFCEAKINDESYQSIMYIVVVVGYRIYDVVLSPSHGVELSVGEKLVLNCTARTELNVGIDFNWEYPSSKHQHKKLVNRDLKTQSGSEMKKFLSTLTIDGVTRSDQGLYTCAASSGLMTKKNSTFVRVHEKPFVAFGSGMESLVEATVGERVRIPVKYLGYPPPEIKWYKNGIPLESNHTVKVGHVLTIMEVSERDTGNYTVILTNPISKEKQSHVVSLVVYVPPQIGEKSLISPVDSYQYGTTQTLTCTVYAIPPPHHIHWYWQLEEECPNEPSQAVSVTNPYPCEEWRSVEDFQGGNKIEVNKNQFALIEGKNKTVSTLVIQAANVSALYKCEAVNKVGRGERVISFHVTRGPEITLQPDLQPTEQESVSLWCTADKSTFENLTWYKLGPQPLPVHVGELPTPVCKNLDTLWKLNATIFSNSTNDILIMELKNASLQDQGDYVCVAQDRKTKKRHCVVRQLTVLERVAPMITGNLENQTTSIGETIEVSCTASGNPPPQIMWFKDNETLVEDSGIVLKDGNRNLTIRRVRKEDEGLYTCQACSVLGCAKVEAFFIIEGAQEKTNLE
As to the kind of experiment: direct ELISA.

For assay [4], the target named is T5, cynomolgus monkey PD1 human Fc tagged recombinant protein (cynomolgus monkey, UniProt Q15116 25-170 (human entry), limits assumed).
T5 construct: also called cyPD1-Fc; cyPD-1-Fc; not shown: human Fc tag
T5 chain: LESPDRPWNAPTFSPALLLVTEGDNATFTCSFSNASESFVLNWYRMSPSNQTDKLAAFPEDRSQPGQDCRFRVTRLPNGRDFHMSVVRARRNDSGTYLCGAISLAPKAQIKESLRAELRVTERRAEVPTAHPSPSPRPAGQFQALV
As to the kind of experiment: direct ELISA, IgG1null on coated PD1-Fc. As to the method: (§1) Binding and cross-reactivity of the lead panel to the recombinant proteins was initially assessed by binding ELISA. The human PD1 human Fc tagged recombinant protein and the cynomolgus monkey PD1 human Fc tagged recombinant protein were coated to the surface of MaxiSorp™ flat-bottom 96 well plate at 1 μg/ml. […] The Fabs were detected using mouse anti-c-myc antibody followed by donkey anti-mouse IgG conjugated to horseradish peroxidase. The IgGs were detected using the mouse anti-human IgG conjugated to horseradish peroxidase. Binding signals were visualized with 3,3′,5,5′-Tetrannethylbenzidine Substrate Solution (TMB) and the absorbance measured at 450 nm.
(§2) The purified IgGs described above were then tested for binding to human and cyno PD1-Fc in direct titration ELISA format. […] As the ELISA EC50 values for directly binding IgGs are strongly influenced by avidity, rather than true 1:1 binding affinity, we then proceeded to perform higher-sensitivity, solution-phase epitope competition and Biacore binding affinity determinations, as outlined below.

Assay [5] addresses T6, human PD1 human Fc tagged recombinant protein (human, UniProt Q15116 25-170, limits assumed).
T6 construct: also called huPD1-Fc; huPD-1-Fc; not shown: human Fc tag
As to the kind of experiment: direct ELISA, IgG1null on coated PD1-Fc. How it is done:
as §1, §2

Assay [6] has as its target T5, cynomolgus monkey PD1 human Fc tagged …. Put plainly: direct ELISA, IgG1null on coated PD1-Fc. How it is done:
as §1, §2

Assay [7] concerns the target T6, human PD1 human Fc tagged recombinant …. Put plainly: direct ELISA, IgG1null on coated PD1-Fc. As to the method:
as §1, §2
The source holds these as a separate data set.

T6 sequence (Q15116 25-170 limits assumed): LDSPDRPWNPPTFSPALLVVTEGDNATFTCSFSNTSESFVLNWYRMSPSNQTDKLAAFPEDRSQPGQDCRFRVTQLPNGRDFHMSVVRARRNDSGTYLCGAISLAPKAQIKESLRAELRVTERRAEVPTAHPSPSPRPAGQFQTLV

B1: IgG1-08 (antibody, V domains shown)
VH: EVQLVESGGGLVQPGGSLRLSCAASGFTFSSYLMSWVRQAPGKGLEWVATISGGGSEKYYVDSVKGRFTISRDNAKNSLYLQMNSLRAEDTAVYYCARQLYGFDYWGQGTLVTVSS
VL: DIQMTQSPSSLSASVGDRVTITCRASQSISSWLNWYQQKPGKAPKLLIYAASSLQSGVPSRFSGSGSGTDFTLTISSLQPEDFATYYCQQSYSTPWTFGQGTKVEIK
notes: Designer; human IgG1null + Ckappa; also called Antibody IgG1-08; MAB08
Consider B1, for which the binding result (in assay [1]; in assay [2]; in the assay with BSA protein; in assay [3]) was “no binding” each time. Moreover, the half-maximal effective concentration (EC50) was 0.0771 nM in assay [4] and 0.134 nM in assay [5].

B2: IgG1-05 (antibody, V domains shown)
VH: B1 VH with L100V, G102Y
VL: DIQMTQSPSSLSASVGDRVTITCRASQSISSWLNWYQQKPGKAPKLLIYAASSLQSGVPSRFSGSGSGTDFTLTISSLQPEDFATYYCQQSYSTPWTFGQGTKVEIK
notes: Designer; human IgG1null + Ckappa; also called Antibody IgG1-05
With B2, the binding result (in assay [1]; in assay [2]; with BSA protein; in assay [3]) was “no binding” in each case. Moreover, the 50% effective concentration (EC50) is 0.135 nM in assay [4] and 0.121 nM in assay [5].

B3: IgG1-06D02 (antibody, V domains shown)
VH: B1 VH with K58T
VL: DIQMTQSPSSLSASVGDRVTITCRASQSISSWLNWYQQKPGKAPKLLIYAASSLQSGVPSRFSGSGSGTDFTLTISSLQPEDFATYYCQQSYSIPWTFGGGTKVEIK
notes: Library-derived; human IgG1null + Ckappa; also called Clone 06D02
As to B3, the concentration for a half-maximal effect (EC50) in assay [6] stood at 0.104 nM; in assay [7], 0.065 nM. For the same molecule, the binding result (in assay [1]; in assay [2]; in the assay with BSA protein; in assay [3]) was “no binding” in each case.

What is called EC50 is the concentration giving half of the maximal effect.
